Measurements from US11820827B2, “Methods of treating myelodysplastic syndrome and acute myeloid leukemia with nonfucosylated anti-CD70 antibodies” (Seagen Inc., priority 2019, dated 2023).

Columns and labels:
[1] = test system: CD8 T cells in PBMCs; assay: CD8 T cell depletion in PBMCs; assay type: cell-based, human; conditions: 24 hours
Experimental: At the end of the experiment cells were stained with Zombie Aqua Viability Dye and total viable Treg naïve and memory CD4 and CD8 T cell numbers were assessed. […] Fucosylated (WT Clone 13 IgG1) and nonfucosylated (SEA Clone 13 IgG1) antibodies targeting TIGIT were used as positive controls (FIG. 4E-4H).

[2] = test system: MOLM-13 CD70+ target cells; assay: ADCP with monocyte-derived macrophages, MOLM-13; assay type: cell-based, human; conditions: flow cytometry, antibody dose-dependent
Experimental: (§1) Phagocytosis of fluorescently labeled target cells was determined by flow cytometry. Phagocytosis was measured for the appearance of double-labeled coincident events (fluorescent target cells) and anti-CD11c positivity to identify monocyte/macrophages.
(§2) The following protocol was used to assess […] activity on AML cell lines: • 1. Target cells were labeled using the PKH26 Red Fluorescent Cell Linker Mini Kit (Sigma Aldrich) and following the manufacturer's instructions. • 2. Cells (4000 cells/well) were incubated with the indicated test articles for 30 minutes, washed and resuspended in RPMI plus 10% ultra-low IgG FBS. • 3. PBMC-derived macrophages (100,000 cells/well), generated by incubating PBMC-derived monocytes with 500 U/mL (50 ng/mL) GM-CSF for 10-12 days, were added to the target cells and incubated at 37° C. for 2 hours. • 4. Plates were centrifuged and cells resuspended in 100 μl of APC-CD11 antibody (macrophage marker) and incubated on ice for 30 minutes. • 5. Cells were washed, resuspended in PBS and analyzed by flow cytometry to determine the percentage of phagocytosis

[3] = test system: NOMO-1 CD70+ target cells; assay: ADCP with monocyte-derived macrophages, NOMO-1; assay type: cell-based, human; conditions: flow cytometry, antibody dose-dependent
Experimental: as §1, §2

[4] = test system: Raji NHL Burkitt Lymphoma model; assay: Survival in the Raji NHL Burkitt Lymphoma mouse model; assay type: in vivo, SCID mice; conditions: for median survival post implant: untreated 20 days

B1: SEA-CD70: humanized, nonfucosylated monoclonal IgG1 antibody targeting CD70 (nonfucosylated h1F6) (antibody, chains of the INN, looked up, V domains shown)
VH: QVQLVQSGAEVKKPGASVKVSCKASGYTFTNYGMNWVRQAPGQGLKWMGWINTYTGEPTYADAFKGRVTMTRDTSISTAYMELSRLRSDDTAVYYCARDYGDYGMDYWGQGTTVTVSS
VL: DIVMTQSPDSLAVSLGERATINCRASKSVSTSGYSFMHWYQQKPGQPPKLLIYLASNLESGVPDRFSGSGSGTDFTLTISSLQAEDVAVYYCQHSREVPWTFGQGTKVEIK
modifications: nonfucosylated
- CD8+ cell depletion ([1]; V/V high affinity donor): Neither fucosylated nor nonfucosylated anti-CD70 antibodies depleted CD8+ cells
- CD8+ cell depletion ([1]; low affinity (F/F 158) donor): Neither fucosylated nor nonfucosylated anti-CD70 antibodies depleted CD8+ cells
- phagocytosis of antibody-coated target cells by macrophages [2]: readily phagocytosed target cells
- phagocytosis of antibody-coated target cells by macrophages [3]: readily phagocytosed target cells
- median survival post implant ([4]; 0.3 mg/kg Q4dx4 intraperitoneally): 36.5 days
- median survival post implant ([4]; 1 mg/kg Q4dx4 intraperitoneally): 68 days
- total number of animals in group ([4]; 1 mg/kg, day 0): 8
- total number of animals in group ([4]; 1 mg/kg, day 23): 8
- total number of animals in group ([4]; 1 mg/kg, day 30): 7
- total number of animals in group ([4]; 1 mg/kg, day 54): 6
- total number of animals in group ([4]; 1 mg/kg, day 61): 5
- total number of animals in group ([4]; 1 mg/kg, day 75): 4
- total number of animals in group ([4]; 1 mg/kg, day 90): 3
- median survival post implant ([4]; 3 mg/kg Q4dx4 intraperitoneally): 69.5 days
- total number of animals in group ([4]; 3 mg/kg, day 0): 8
- total number of animals in group ([4]; 3 mg/kg, day 28): 8
- total number of animals in group ([4]; 3 mg/kg, day 33): 7
- total number of animals in group ([4]; 3 mg/kg, day 64): 5
- total number of animals in group ([4]; 3 mg/kg, day 75): 4
- total number of animals in group ([4]; 3 mg/kg, day 90): 3
- survival compared to untreated mice ([4]; 0.3, 1 and 3 mg/kg): increased survival
- total number of animals in group ([4]; .3 mg/kg, day 0): 8
- total number of animals in group ([4]; .3 mg/kg, day 5): 8
- total number of animals in group ([4]; .3 mg/kg, day 33): 7
- total number of animals in group ([4]; .3 mg/kg, day 35): 6
- total number of animals in group ([4]; .3 mg/kg, day 36): 5
- total number of animals in group ([4]; .3 mg/kg, day 37): 4
- total number of animals in group ([4]; .3 mg/kg, day 69): 3
- total number of animals in group ([4]; .3 mg/kg, day 90): 2
